Experimental data taken from patent US20220227830A1, “QD DOSING OF GIP RECEPTOR AGONIST PEPTIDE COMPOUNDS AND USES THEREOF” (Takeda Pharmaceutical Company Limited, priority 2020, published 2022).
Starred links: 1 amine or outer side, 2 acyl side, 3 side chain; linkers in the order of their positions; H or OH if unused. Non-standard residues stand in square brackets, D forms with d. Groups on a side chain read outwards from the residue. No end group written: not given here. *: point of attachment. C16 diacid = O=C(O)CCCCCCCCCCCCCCC(=O)*; C15 diacid = O=C(O)CCCCCCCCCCCCCC(=O)*; γGlu = O=C(O)[C@H](CCC(=O)[*:2])N[*:1]; NMeY = CN[C@@H](Cc1ccc(O)cc1)C(=O)O; AEEA = NCCOCCOCC(=O)O; Aib = CC(C)(N)C(=O)O

Columns and labels:
human plasma proteins [1] = test: plasma protein binding, ultracentrifugation of spiked plasma, LC-MS/MS
dog plasma proteins = test: as above
human plasma proteins [2] = test: plasma protein binding; spiked human plasma, ultracentrifugation, LC-MS/MS

| Binder | Human PPB (Fu,plasma), fraction unbound (fraction unbound) (human plasma proteins [1]) | Dog PPB (Fu,plasma), fraction unbound (fraction unbound) (dog plasma proteins) | percent of unbound drug in plasma (human plasma proteins [2]) [%] | proportion of the drug being bound (human plasma proteins [2]) [%] |
| --- | --- | --- | --- | --- |
| [NMeY][Aib]EGTFISDYSIALDR[Aib]K([AEEA-AEEA-γGlu-γGlu-C15 diacid])Q[Aib]NFVNWLLAQSPSSGAPPPS-NH2 (N-terminus assumed; SMILES CC[C@H](C)[C@H](NC(=O)[C@H](CO)NC(=O)[C@H](Cc1ccc(O)cc1)NC(=O)[C@H](CC(=O)O)NC(=O)[C@H](CO)NC(=O)[C@@H](NC(=O)[C@H](Cc1ccccc1)NC(=O)[C@@H](NC(=O)CNC(=O)[C@H](CCC(=O)O)NC(=O)C(C)(C)NC(=O)[C@H](Cc1ccc(O)cc1)NC)[C@@H](C)O)[C@@H](C)CC)C(=O)N[C@@H](C)C(=O)N[C@@H](CC(C)C)C(=O)N[C@@H](CC(=O)O)C(=O)N[C@@H](CCCNC(=N)N)C(=O)NC(C)(C)C(=O)N[C@@H](CCCCNC(=O)COCCOCCNC(=O)COCCOCCNC(=O)CC[C@H](NC(=O)CC[C@H](NC(=O)CCCCCCCCCCCCCC(=O)O)C(=O)O)C(=O)O)C(=O)N[C@@H](CCC(N)=O)C(=O)NC(C)(C)C(=O)N[C@@H](CC(N)=O)C(=O)N[C@@H](Cc1ccccc1)C(=O)N[C@H](C(=O)N[C@@H](CC(N)=O)C(=O)N[C@@H](Cc1c[nH]c2ccccc12)C(=O)N[C@@H](CC(C)C)C(=O)N[C@@H](CC(C)C)C(=O)N[C@@H](C)C(=O)N[C@@H](CCC(N)=O)C(=O)N[C@@H](CO)C(=O)N1CCC[C@H]1C(=O)N[C@@H](CO)C(=O)N[C@@H](CO)C(=O)NCC(=O)N[C@@H](C)C(=O)N1CCC[C@H]1C(=O)N1CCC[C@H]1C(=O)N1CCC[C@H]1C(=O)N[C@@H](CO)C(N)=O)C(C)C) [Compound 17] | 0.064 | 0.0675 | – | – |
| [NMeY][Aib]EGTFISDYSI[Aib]LDR[Aib]AQ[Aib]NFVNWLLAQK([AEEA-AEEA-γGlu-γGlu-C15 diacid])PSSGAPPPS-NH2 (N-terminus assumed; SMILES CC[C@H](C)[C@H](NC(=O)[C@H](Cc1ccccc1)NC(=O)[C@@H](NC(=O)CNC(=O)[C@H](CCC(=O)O)NC(=O)C(C)(C)NC(=O)[C@H](Cc1ccc(O)cc1)NC)[C@@H](C)O)C(=O)N[C@@H](CO)C(=O)N[C@@H](CC(=O)O)C(=O)N[C@@H](Cc1ccc(O)cc1)C(=O)N[C@@H](CO)C(=O)N[C@H](C(=O)NC(C)(C)C(=O)N[C@@H](CC(C)C)C(=O)N[C@@H](CC(=O)O)C(=O)N[C@@H](CCCNC(=N)N)C(=O)NC(C)(C)C(=O)N[C@@H](C)C(=O)N[C@@H](CCC(N)=O)C(=O)NC(C)(C)C(=O)N[C@@H](CC(N)=O)C(=O)N[C@@H](Cc1ccccc1)C(=O)N[C@H](C(=O)N[C@@H](CC(N)=O)C(=O)N[C@@H](Cc1c[nH]c2ccccc12)C(=O)N[C@@H](CC(C)C)C(=O)N[C@@H](CC(C)C)C(=O)N[C@@H](C)C(=O)N[C@@H](CCC(N)=O)C(=O)N[C@@H](CCCCNC(=O)COCCOCCNC(=O)COCCOCCNC(=O)CC[C@H](NC(=O)CC[C@H](NC(=O)CCCCCCCCCCCCCC(=O)O)C(=O)O)C(=O)O)C(=O)N1CCC[C@H]1C(=O)N[C@@H](CO)C(=O)N[C@@H](CO)C(=O)NCC(=O)N[C@@H](C)C(=O)N1CCC[C@H]1C(=O)N1CCC[C@H]1C(=O)N1CCC[C@H]1C(=O)N[C@@H](CO)C(N)=O)C(C)C)[C@@H](C)CC) [Compound 21] | 0.0414 | 0.037 | – | – |
| [NMeY][Aib]EGTFISDYSIALDR[Aib]K([AEEA-AEEA-γGlu-γGlu-C16 diacid])Q[Aib]NFVNWLLAQSPSSGAPPPS-NH2 [Compound 119] | 0.0185 | 0.0105 | – | – |
| [NMeY][Aib]EGTFISDYSI[Aib]LDRK([AEEA-AEEA-γGlu-γGlu-C15 diacid])AQ[Aib]NFVNWLLAQRPSSGAPPPS-NH2 (not fully specified (N-terminus)) [Compound 20] | 0.0013 | 0.0021 | 0.1 | – |
| [NMeY][Aib]EGTFISDYSIAK([AEEA-AEEA-γGlu-γGlu-C15 diacid])DR[Aib]AQ[Aib]NFVNWLLAQS [Compound 16] | 0.0441 | 0.0151 | – | – |
| [NMeY][Aib]EGTFISDYSIAK([AEEA-γGlu-γGlu-γGlu-C15 diacid])DR[Aib]AQ[Aib]NFVNWLLAQK-NH2 (N-terminus assumed; SMILES CC[C@H](C)[C@H](NC(=O)[C@H](CO)NC(=O)[C@H](Cc1ccc(O)cc1)NC(=O)[C@H](CC(=O)O)NC(=O)[C@H](CO)NC(=O)[C@@H](NC(=O)[C@H](Cc1ccccc1)NC(=O)[C@@H](NC(=O)CNC(=O)[C@H](CCC(=O)O)NC(=O)C(C)(C)NC(=O)[C@H](Cc1ccc(O)cc1)NC)[C@@H](C)O)[C@@H](C)CC)C(=O)N[C@@H](C)C(=O)N[C@@H](CCCCNC(=O)COCCOCCNC(=O)CC[C@H](NC(=O)CC[C@H](NC(=O)CC[C@H](NC(=O)CCCCCCCCCCCCCC(=O)O)C(=O)O)C(=O)O)C(=O)O)C(=O)N[C@@H](CC(=O)O)C(=O)N[C@@H](CCCNC(=N)N)C(=O)NC(C)(C)C(=O)N[C@@H](C)C(=O)N[C@@H](CCC(N)=O)C(=O)NC(C)(C)C(=O)N[C@@H](CC(N)=O)C(=O)N[C@@H](Cc1ccccc1)C(=O)N[C@H](C(=O)N[C@@H](CC(N)=O)C(=O)N[C@@H](Cc1c[nH]c2ccccc12)C(=O)N[C@@H](CC(C)C)C(=O)N[C@@H](CC(C)C)C(=O)N[C@@H](C)C(=O)N[C@@H](CCC(N)=O)C(=O)N[C@@H](CCCCN)C(N)=O)C(C)C) [Compound 23] | 0.0734 | – | 7.3 | 92.7 |
| [NMeY][Aib]EGTFISDYSI[Aib]K([AEEA-AEEA-γGlu-γGlu-C15 diacid])DR[Aib]AQ[Aib]NFVNWLLAQRPSSGAPPPS-NH2 (N-terminus assumed; SMILES CC[C@H](C)[C@H](NC(=O)[C@H](Cc1ccccc1)NC(=O)[C@@H](NC(=O)CNC(=O)[C@H](CCC(=O)O)NC(=O)C(C)(C)NC(=O)[C@H](Cc1ccc(O)cc1)NC)[C@@H](C)O)C(=O)N[C@@H](CO)C(=O)N[C@@H](CC(=O)O)C(=O)N[C@@H](Cc1ccc(O)cc1)C(=O)N[C@@H](CO)C(=O)N[C@H](C(=O)NC(C)(C)C(=O)N[C@@H](CCCCNC(=O)COCCOCCNC(=O)COCCOCCNC(=O)CC[C@H](NC(=O)CC[C@H](NC(=O)CCCCCCCCCCCCCC(=O)O)C(=O)O)C(=O)O)C(=O)N[C@@H](CC(=O)O)C(=O)N[C@@H](CCCNC(=N)N)C(=O)NC(C)(C)C(=O)N[C@@H](C)C(=O)N[C@@H](CCC(N)=O)C(=O)NC(C)(C)C(=O)N[C@@H](CC(N)=O)C(=O)N[C@@H](Cc1ccccc1)C(=O)N[C@H](C(=O)N[C@@H](CC(N)=O)C(=O)N[C@@H](Cc1c[nH]c2ccccc12)C(=O)N[C@@H](CC(C)C)C(=O)N[C@@H](CC(C)C)C(=O)N[C@@H](C)C(=O)N[C@@H](CCC(N)=O)C(=O)N[C@@H](CCCNC(=N)N)C(=O)N1CCC[C@H]1C(=O)N[C@@H](CO)C(=O)N[C@@H](CO)C(=O)NCC(=O)N[C@@H](C)C(=O)N1CCC[C@H]1C(=O)N1CCC[C@H]1C(=O)N1CCC[C@H]1C(=O)N[C@@H](CO)C(N)=O)C(C)C)[C@@H](C)CC) [Compound 19] | 0.0321 | 0.0361 | – | – |
| [NMeY][Aib]EGTFISDYSIAK([γGlu-γGlu-γGlu-C15 diacid])DR[Aib]AQ[Aib]NFVNWLLAQSPSSGAPPPS-NH2 (N-terminus assumed; SMILES CC[C@H](C)[C@H](NC(=O)[C@H](CO)NC(=O)[C@H](Cc1ccc(O)cc1)NC(=O)[C@H](CC(=O)O)NC(=O)[C@H](CO)NC(=O)[C@@H](NC(=O)[C@H](Cc1ccccc1)NC(=O)[C@@H](NC(=O)CNC(=O)[C@H](CCC(=O)O)NC(=O)C(C)(C)NC(=O)[C@H](Cc1ccc(O)cc1)NC)[C@@H](C)O)[C@@H](C)CC)C(=O)N[C@@H](C)C(=O)N[C@@H](CCCCNC(=O)CC[C@H](NC(=O)CC[C@H](NC(=O)CC[C@H](NC(=O)CCCCCCCCCCCCCC(=O)O)C(=O)O)C(=O)O)C(=O)O)C(=O)N[C@@H](CC(=O)O)C(=O)N[C@@H](CCCNC(=N)N)C(=O)NC(C)(C)C(=O)N[C@@H](C)C(=O)N[C@@H](CCC(N)=O)C(=O)NC(C)(C)C(=O)N[C@@H](CC(N)=O)C(=O)N[C@@H](Cc1ccccc1)C(=O)N[C@H](C(=O)N[C@@H](CC(N)=O)C(=O)N[C@@H](Cc1c[nH]c2ccccc12)C(=O)N[C@@H](CC(C)C)C(=O)N[C@@H](CC(C)C)C(=O)N[C@@H](C)C(=O)N[C@@H](CCC(N)=O)C(=O)N[C@@H](CO)C(=O)N1CCC[C@H]1C(=O)N[C@@H](CO)C(=O)N[C@@H](CO)C(=O)NCC(=O)N[C@@H](C)C(=O)N1CCC[C@H]1C(=O)N1CCC[C@H]1C(=O)N1CCC[C@H]1C(=O)N[C@@H](CO)C(N)=O)C(C)C) [Compound 18] | 0.0588 | 0.0517 | – | – |
